According to patent US12416034B2, “Recombinant production of steviol glycosides” (EVOLVA SA, priority 2011, dated 2025):

B1: UGT74G1: S. rebaudiana UGT, SEQ ID NO:1 (protein, listed as Stevia rebaudiana)
chain: MAEQQKIKKSPHVLLIPFPLQGHINPFIQFGKRLISKGVKTTLVTTIHTLNSTLNHSNTTTTSIEIQAISDGCDEGGFMSAGESYLETFKQVGSKSLADLIKKLQSEGTTIDAIIYDSMTEWVLDVAIEFGIDGGSFFTQACVVNSLYYHVHKGLISLPLGETVSVPGFPVLQRWETPLILQNHEQIQSPWSQMLFGQFANIDQARWVFTNSFYKLEEEVIEWTRKIWNLKVIGPTLPSMYLDKRLDDDKDNGFNLYKANHHECMNWLDDKPKESVVYVAFGSLVKHGPEQVEEITRALIDSDVNFLWVIKHKEEGKLPENLSEVIKTGKGLIVAWCKQLDVLAHESVGCFVTHCGFNSTLEAISLGVPVVAMPQFSDQTTNAKLLDEILGVGVRVKADENGIVRRGNLASCIKMIMEEERGVIIRKNAVKWKDLAKVAVHEGGSSDNDIVEFVSELIKA
B2: 91D2e-b: UGT91D2e double mutant C631A/T857C, amino acid modifications L211M and V286A (protein, listed as Stevia rebaudiana)
chain: MATSDSIVDDRKQLHVATFPWLAFGHILPYLQLSKLIAEKGHKVSFLSTTRNIQRLSSHISPLINVVQLTLPRVQELPEDAEATTDVHPEDIPYLKKASDGLQPEVTRFLEQHSPDWIIYDYTHYWLPSIAASLGISRAHFSVTTPWAIAYMGPSADAMINGSDGRTTVEDLTTPPKWFPFPTKVCWRKHDLARLVPYKAPGISDGYRMGMVLKGSDCLLSKCYHEFGTQWLPLLETLHQVPVVPVGLLPPEIPGDEKDETWVSIKKWLDGKQKGSVVYVALGSEALVSQTEVVELALGLELSGLPFVWAYRKPKGPAKSDSVELPDGFVERTRDRGLVWTSWAPQLRILSHESVCGFLTHCGSGSIVEGLMFGHPLIMLPIFGDQPLNARLLEDKQVGIEIPRNEEDGCLTKESVARSLRSVVVEKEGEIYKANARELSKIYNDTKVEKEYVSQFVDYLEKNARAVAIDHES

Experiments:
RebD solubility in water = format: physicochemical; settings: 30° C.
Method: The solubility of RebD was assessed by making several different solutions of RebD in water were made and incubated at 30° C. for 72 hours. […] One with skill in the art will recognize that the solubility can be influenced by any number of conditions such as pH, temperature, or different matrices.

[1] = Denaturation temperature by differential scanning calorimetry (DSC); format: physicochemical; settings: 6HIS-purified enzymes, 91D2e-b GST-purified
Method: To assess the thermal stability of EUGT11 and to compare it with the other UGTs in the steviol glycosylation pathway, denaturation temperatures of the proteins were determined using differential scanning calorimetry (DSC). Use of DSC thermograms to estimate denaturation temperatures, TD, is described, for example, by E. Freire in Methods in Molecular Biology 1995, Vol. 40 191-218. DSC was performed (using 6HIS-purified EUGT11, yielding an apparent TD of 39° C.; while when GST-purified 91D2e-b was used, the measured TD was 79° C. For reference, the measured TD when using 6HIS-purified UGT74G1, UGT76G1 and UGT85C2 was 86° C. in all cases. One of skill in the art will recognize that enzyme immobilization or addition of thermal protectants can be added to the reactions to improve stability of the protein. Non-limiting examples of thermal protectants include trehalose, glycerol, ammonium sulphate, betaine, trimethylamine oxide, and proteins.

[2] = Codon optimized UGT cell lysate assay, steviol as substrate; format: biochemical; settings: 0.25 mM steviol, 24 hours, 30° C.
Method: The wild-type, DNA 2.0, and GeneArt sequences were assayed for in vitro activity to compare reactivity on substrates in the steviol glycosides pathway. UGTs were inserted in high copy (2p) vectors and expressed from a strong constitutive promoter (GPD1) (vectors P423-GPD, P424-GPD, P425-GPD, and P426-GPD). The plasmids were transformed individually into the universal Watchmaker strain, EFSC301 (described in Example 3 of WO2011/153378) and assays were carried out using cell lysates prepared from equal amount of cells (8 OD units). For the enzymatic reactions, 6 μL of each cell lysate were incubated in a 30 μL reaction with 0.25 mM steviol (final concentration) to test UGT74G1 and UGT85C2 clones, and with 0.25 mM 13-SMG (13SMG) (final concentration) to test 76G1 and 91D2e UGTs. Assays were carried out for 24 hours at 30° C. Prior to LC-MS analysis, one volume of 100% DMSO was added to each reaction, samples were centrifuged at 16000 g, and the supernatants analysed.

[3] = Screening by LC-MS of E. coli lysates, rubusoside as substrate; format: biochemical
Method: (§1) To analyze the approximately 1600 mutant clones of UGT91D2e, the E. coli transformants were grown overnight at 30° C. in 1 ml of NZCYM containing ampicillin (100 mg/1) and chloramphenicol (33 mg/1), in 96-well format. The next day, 150 μl of each culture was inoculated into 3 ml NZCYM containing ampicillin (100 mg/1), chloramphenicol (33 mg/1), arabinose 3 mM, IPTG 0.1 mM and ethanol 2% v/v, in 24-well format, and incubated at 20° C. and 200 rpm for ˜20 h. The following day, cells were spun down and pellets were resuspended in 100 μl of lysis buffer containing 10 mM Tris-HCl pH 8, 5 mM MgCl2, 1 mM CaCl2) and complete mini protease inhibitor EDTA-free (3 tablets/100 ml) (Hoffmann-La Roche, Basel, Switzerland) and frozen −80° C. for at least 15 minutes to promote cell lysis. […] In each case, the resulting compounds, stevioside or rebaudioside D (rebD), were measured by LC-MS. Results were analyzed in comparison with the stevioside or rebD produced by the lysates expressing the corresponding controls (91D2e, 91D2e-b, EUGT11 and the empty plasmid). […]
(§2) Half of the 1600 clones and the corresponding controls were assayed for their capacity to glycosylate rubusoside and rebaudiosideA. Stevioside and RebD were quantified by LC-MS. […]

[4] = Screening by LC-MS of E. coli lysates, rebaudioside A as substrate; format: biochemical; settings: RebA substrate
Method: as §1, §2

[5] = Enzyme kinetics with RebA as substrate; format: biochemical; settings: Reb A
Method: (§3) A series of experiments were performed to determine kinetic parameters of EUGT11 and 91D2e-b. For both enzymes, 100 μM RebA, 300 μM UDP-glucose, and 10 U/mL Alkaline Phosphatase (Fermentas/Thermo Fisher, Waltham, MA) were used in the reactions. For EUGT11, the reactions were performed at 37° C. using 100 mM Tris-HCl, pH 7, and 2% enzyme. For 91D2e-b, the reactions were performed at 30° C. using 20 mM Hepes-NaOH, pH 7.6, 20% (by volume) enzyme. The initial velocities (V0) were calculated in the linear range of a product versus time plot.
To first investigate the linearity intervals, initial time-courses were done for each enzyme. EUGT11 was assayed at 37° C. for 48 h at initial concentrations of 100 μM RebA and 300 μM UDP-glucose. UGT91D2e-b was assayed at 37° C. for 24 h at initial concentrations of 200 μM RebA and 600 μM UDP-glucose. Based on these range-finding studies, it was determined that the initial 10 minutes in the case of EUGT11, and the initial 20 minutes in UGT91D2e-b would be in the linear range with respect to product formation, and therefore initial velocities of each reaction were calculated in those intervals. In the case of EUGT11, RebA concentrations assayed were 30 μM, 50 μM, 100 μM, 200 μM, 300 μM and 500 μM. Concentration of UDP-glucose was always three times the concentration of RebA and incubation was performed at 37° C. By plotting the calculated V0 as a function of the substrate concentrations, Michaelis-Menten curves were generated. By plotting the reciprocal of V0 and the reciprocal of [S], a Lineweaver-Burk graphic was obtained, with y=339.85x+1.8644; R^2=0.9759.
(§4) Vmax and KM parameters were determined from the curve-fit Lineweaver-Burk data, calculated from the x- and y intercepts (x=0, y=1/Vmax) and (y=0, x=−1/KM). Additionally, the same parameters also were calculated by a non-linear least squares regression, using the SOLVER function in Excel. The results obtained with both methods for EUGT11 and RebA are presented in Table 12, along with all the kinetic parameters of this example. Kcat is calculated based on Vmax divided by the approximate amount of protein in the assay.
(§5) In the case of UGT91D2e-b, RebA concentrations assayed were 50 μM, 100 μM, 200 μM, 300 μM, 400 μM and 500 μM. Concentration of UDP-glucose was always three times the concentration of RebA and incubation was performed at 30° C., in the reaction conditions described above for UGT91D2e-b. Additionally, kinetic parameters of UGT91D2e-b towards UDP-glucose were determined. UGT91D2e-b was incubated with increasing amounts of UDP-glucose (30 μM, 50 μM, 100 μM, and 200 μM), maintaining an excess of RebA (1500 μM). incubation was performed at 30° C., in optimal conditions for UGT91D2e-b.

[6] = Enzyme kinetics with UDP-glucose as substrate; format: biochemical
Method: as §3, §4
In order to investigate the influence of UDP-glucose concentration in the glycosylation reaction, as well as the affinity of EUGT11 for UDP-glucose, similar kinetics analysis were performed. EUGT11 was incubated with increasing amounts of UDP-glucose (20 μM, 50 μM, 100 μM, and 200 μM), maintaining an excess of RebA (500 μM).
as §5

Molecule	concentration soluble in water initially (RebD solubility in water; 72 hours) [µM]	concentration stable for longer periods of time (RebD solubility in water; water) [µM]	denaturation temperature TD [1] [°C]	activity of GeneArt lysate as a percentage of the wild-type enzyme [2]	stevioside formed by lysates [3] [µM]	RebD formed by lysates [4] [µM]	Kcat ([5]; Lineweaver-Burk plot) [s⁻¹]	Km ([5]; Lineweaver-Burk plot) [µM]	Vmax ([5]; Lineweaver-Burk plot) [µM/min]	Kcat ([5]; Nonlinear Least Square Fit) [s⁻¹]	Km ([5]; Nonlinear Least Square Fit) [µM]	Vmax ([5]; Nonlinear Least Square Fit) [µM/min]	Kcat ([6]; Lineweaver-Burk plot) [s⁻¹]	Km ([6]; Lineweaver-Burk plot) [µM]	Vmax ([6]; Lineweaver-Burk plot) [µM/min]	Kcat ([6]; Nonlinear Least Square Fit) [s⁻¹]	Km ([6]; Nonlinear Least Square Fit) [µM]	Vmax ([6]; Nonlinear Least Square Fit) [µM/min]
C=C1C[C@@]23CC[C@H]4[C@@](C)(CCC[C@@]4(C)C(=O)O[C@@H]4O[C@H](CO)[C@@H](O)[C@H](O)[C@H]4O[C@@H]4O[C@H](CO)[C@@H](O)[C@H](O)[C@H]4O)[C@@H]2CC[C@]1(O[C@@H]1O[C@H](CO)[C@@H](O)[C@H](O[C@@H]2O[C@H](CO)[C@@H](O)[C@H](O)[C@H]2O)[C@H]1O[C@@H]1O[C@H](CO)[C@@H](O)[C@H](O)[C@H]1O)C3 [RebD, Rebaudioside D]	≤ 1000	≤ 500	–	–	–	–	–	–	–	–	–	–	–	–	–	–	–	–
B1	–	–	86	equivalent activity	–	–	–	–	–	–	–	–	–	–	–	–	–	–
B2	–	–	79	–	> 10	> 1.5	0.00683	1580	0.44	0.00533	1150	0.34	0.00317	41.9	0.18	0.0033	45.1	0.19
